Laboratory results reported in patent US20210032299A1.
Starred links: 1 amine or outer side, 2 acyl side, 3 side chain; linkers in the order of their positions; H or OH if unused. Non-standard residues stand in square brackets, D forms with d. Groups on a side chain read outwards from the residue. No end group written: not given here. *: point of attachment. C20 diacid = O=C(O)CCCCCCCCCCCCCCCCCCC(=O)*; C18 diacid = O=C(O)CCCCCCCCCCCCCCCCC(=O)*; αMePhe(2-F) = C[C@](N)(Cc1ccccc1F)C(=O)O; γGlu = O=C(O)[C@H](CCC(=O)[*:2])N[*:1]; αMeF = C[C@](N)(Cc1ccccc1)C(=O)O; 4Pal = N[C@@H](Cc1ccncc1)C(=O)O; αMeL = CC(C)C[C@](C)(N)C(=O)O; Orn = NCCC[C@H](N)C(=O)O; AEEA = NCCOCCOCC(=O)O; Aib = CC(C)(N)C(=O)O

T1: human GLP-1 receptor (human), P43220
T1 chain: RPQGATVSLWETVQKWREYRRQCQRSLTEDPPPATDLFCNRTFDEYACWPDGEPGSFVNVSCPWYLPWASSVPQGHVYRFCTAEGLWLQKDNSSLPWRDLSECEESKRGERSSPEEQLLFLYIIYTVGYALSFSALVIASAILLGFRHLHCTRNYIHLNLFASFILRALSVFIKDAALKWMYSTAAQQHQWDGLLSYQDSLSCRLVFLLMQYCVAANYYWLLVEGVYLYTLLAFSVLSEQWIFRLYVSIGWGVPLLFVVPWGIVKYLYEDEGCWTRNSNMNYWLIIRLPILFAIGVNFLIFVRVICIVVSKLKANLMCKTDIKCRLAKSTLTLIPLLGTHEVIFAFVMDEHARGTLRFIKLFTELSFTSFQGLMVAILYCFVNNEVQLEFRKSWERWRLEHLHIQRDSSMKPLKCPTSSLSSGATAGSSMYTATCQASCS

T2: human glucose-dependent insulinotropic polypeptide (GIP) receptor (human), P48546
T2 chain: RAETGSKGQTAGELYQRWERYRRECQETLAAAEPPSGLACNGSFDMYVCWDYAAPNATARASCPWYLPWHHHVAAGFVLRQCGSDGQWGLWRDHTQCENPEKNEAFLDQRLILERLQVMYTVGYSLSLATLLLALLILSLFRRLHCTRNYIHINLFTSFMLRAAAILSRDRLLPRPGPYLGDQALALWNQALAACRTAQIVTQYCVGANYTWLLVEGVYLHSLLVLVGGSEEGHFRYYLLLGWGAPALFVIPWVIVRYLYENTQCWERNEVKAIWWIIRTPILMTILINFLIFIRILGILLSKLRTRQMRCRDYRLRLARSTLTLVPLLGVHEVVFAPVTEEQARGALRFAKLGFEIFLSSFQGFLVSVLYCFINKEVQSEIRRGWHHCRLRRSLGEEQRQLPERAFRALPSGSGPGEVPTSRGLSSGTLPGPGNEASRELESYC

B1: Example 97 (peptide)
peptide: Y[Aib]EGT[αMeF]ISDYSIALDKIHQ[Aib]EFVNYK([AEEA-AEEA-γGlu-C20 diacid])LAGGPSSGAPPPS-NH2
modifications: N-terminus assumed
SMILES: CC[C@H](C)[C@H](NC(=O)[C@H](CO)NC(=O)[C@H](Cc1ccc(O)cc1)NC(=O)[C@H](CC(=O)O)NC(=O)[C@H](CO)NC(=O)[C@@H](NC(=O)[C@](C)(Cc1ccccc1)NC(=O)[C@@H](NC(=O)CNC(=O)[C@H](CCC(=O)O)NC(=O)C(C)(C)NC(=O)[C@@H](N)Cc1ccc(O)cc1)[C@@H](C)O)[C@@H](C)CC)C(=O)N[C@@H](C)C(=O)N[C@@H](CC(C)C)C(=O)N[C@@H](CC(=O)O)C(=O)N[C@@H](CCCCN)C(=O)N[C@H](C(=O)N[C@@H](Cc1c[nH]cn1)C(=O)N[C@@H](CCC(N)=O)C(=O)NC(C)(C)C(=O)N[C@@H](CCC(=O)O)C(=O)N[C@@H](Cc1ccccc1)C(=O)N[C@H](C(=O)N[C@@H](CC(N)=O)C(=O)N[C@@H](Cc1ccc(O)cc1)C(=O)N[C@@H](CCCCNC(=O)COCCOCCNC(=O)COCCOCCNC(=O)CC[C@H](NC(=O)CCCCCCCCCCCCCCCCCCC(=O)O)C(=O)O)C(=O)N[C@@H](CC(C)C)C(=O)N[C@@H](C)C(=O)NCC(=O)NCC(=O)N1CCC[C@H]1C(=O)N[C@@H](CO)C(=O)N[C@@H](CO)C(=O)NCC(=O)N[C@@H](C)C(=O)N1CCC[C@H]1C(=O)N1CCC[C@H]1C(=O)N1CCC[C@H]1C(=O)N[C@@H](CO)C(N)=O)C(C)C)[C@@H](C)CC
B2: Example 87 (peptide)
peptide: Y[Aib]EGTFISDYSI[αMeL]LD[Orn]K([AEEA-AEEA-γGlu-C18 diacid])HQ[Aib]DFVE[4Pal]LLEAGPSSGAPPPS-NH2
modifications: N-terminus assumed
SMILES: CC[C@H](C)[C@H](NC(=O)[C@H](Cc1ccccc1)NC(=O)[C@@H](NC(=O)CNC(=O)[C@H](CCC(=O)O)NC(=O)C(C)(C)NC(=O)[C@@H](N)Cc1ccc(O)cc1)[C@@H](C)O)C(=O)N[C@@H](CO)C(=O)N[C@@H](CC(=O)O)C(=O)N[C@@H](Cc1ccc(O)cc1)C(=O)N[C@@H](CO)C(=O)N[C@H](C(=O)N[C@@](C)(CC(C)C)C(=O)N[C@@H](CC(C)C)C(=O)N[C@@H](CC(=O)O)C(=O)N[C@@H](CCCN)C(=O)N[C@@H](CCCCNC(=O)COCCOCCNC(=O)COCCOCCNC(=O)CC[C@H](NC(=O)CCCCCCCCCCCCCCCCC(=O)O)C(=O)O)C(=O)N[C@@H](Cc1c[nH]cn1)C(=O)N[C@@H](CCC(N)=O)C(=O)NC(C)(C)C(=O)N[C@@H](CC(=O)O)C(=O)N[C@@H](Cc1ccccc1)C(=O)N[C@H](C(=O)N[C@@H](CCC(=O)O)C(=O)N[C@@H](Cc1ccncc1)C(=O)N[C@@H](CC(C)C)C(=O)N[C@@H](CC(C)C)C(=O)N[C@@H](CCC(=O)O)C(=O)N[C@@H](C)C(=O)NCC(=O)N1CCC[C@H]1C(=O)N[C@@H](CO)C(=O)N[C@@H](CO)C(=O)NCC(=O)N[C@@H](C)C(=O)N1CCC[C@H]1C(=O)N1CCC[C@H]1C(=O)N1CCC[C@H]1C(=O)N[C@@H](CO)C(N)=O)C(C)C)[C@@H](C)CC
B3: Example 98 (peptide)
peptide: Y[Aib]EGT[αMePhe(2-F)]ISDYSIALDKIHQ[Aib]EFVNYK([AEEA-AEEA-γGlu-C20 diacid])LAGGPSSGAPPPS-NH2
modifications: N-terminus assumed
SMILES: CC[C@H](C)[C@H](NC(=O)[C@H](CO)NC(=O)[C@H](Cc1ccc(O)cc1)NC(=O)[C@H](CC(=O)O)NC(=O)[C@H](CO)NC(=O)[C@@H](NC(=O)[C@](C)(Cc1ccccc1F)NC(=O)[C@@H](NC(=O)CNC(=O)[C@H](CCC(=O)O)NC(=O)C(C)(C)NC(=O)[C@@H](N)Cc1ccc(O)cc1)[C@@H](C)O)[C@@H](C)CC)C(=O)N[C@@H](C)C(=O)N[C@@H](CC(C)C)C(=O)N[C@@H](CC(=O)O)C(=O)N[C@@H](CCCCN)C(=O)N[C@H](C(=O)N[C@@H](Cc1c[nH]cn1)C(=O)N[C@@H](CCC(N)=O)C(=O)NC(C)(C)C(=O)N[C@@H](CCC(=O)O)C(=O)N[C@@H](Cc1ccccc1)C(=O)N[C@H](C(=O)N[C@@H](CC(N)=O)C(=O)N[C@@H](Cc1ccc(O)cc1)C(=O)N[C@@H](CCCCNC(=O)COCCOCCNC(=O)COCCOCCNC(=O)CC[C@H](NC(=O)CCCCCCCCCCCCCCCCCCC(=O)O)C(=O)O)C(=O)N[C@@H](CC(C)C)C(=O)N[C@@H](C)C(=O)NCC(=O)NCC(=O)N1CCC[C@H]1C(=O)N[C@@H](CO)C(=O)N[C@@H](CO)C(=O)NCC(=O)N[C@@H](C)C(=O)N1CCC[C@H]1C(=O)N1CCC[C@H]1C(=O)N1CCC[C@H]1C(=O)N[C@@H](CO)C(N)=O)C(C)C)[C@@H](C)CC
B4: Example 4 (peptide)
peptide: Y[Aib]EGTFISDYSI[αMeL]LD[Orn]K([AEEA-AEEA-γGlu-C20 diacid])HQ[Aib]DFVE[4Pal]LLEAGPSSGAPPPS-NH2
modifications: N-terminus assumed
SMILES: CC[C@H](C)[C@H](NC(=O)[C@H](Cc1ccccc1)NC(=O)[C@@H](NC(=O)CNC(=O)[C@H](CCC(=O)O)NC(=O)C(C)(C)NC(=O)[C@@H](N)Cc1ccc(O)cc1)[C@@H](C)O)C(=O)N[C@@H](CO)C(=O)N[C@@H](CC(=O)O)C(=O)N[C@@H](Cc1ccc(O)cc1)C(=O)N[C@@H](CO)C(=O)N[C@H](C(=O)N[C@@](C)(CC(C)C)C(=O)N[C@@H](CC(C)C)C(=O)N[C@@H](CC(=O)O)C(=O)N[C@@H](CCCN)C(=O)N[C@@H](CCCCNC(=O)COCCOCCNC(=O)COCCOCCNC(=O)CC[C@H](NC(=O)CCCCCCCCCCCCCCCCCCC(=O)O)C(=O)O)C(=O)N[C@@H](Cc1c[nH]cn1)C(=O)N[C@@H](CCC(N)=O)C(=O)NC(C)(C)C(=O)N[C@@H](CC(=O)O)C(=O)N[C@@H](Cc1ccccc1)C(=O)N[C@H](C(=O)N[C@@H](CCC(=O)O)C(=O)N[C@@H](Cc1ccncc1)C(=O)N[C@@H](CC(C)C)C(=O)N[C@@H](CC(C)C)C(=O)N[C@@H](CCC(=O)O)C(=O)N[C@@H](C)C(=O)NCC(=O)N1CCC[C@H]1C(=O)N[C@@H](CO)C(=O)N[C@@H](CO)C(=O)NCC(=O)N[C@@H](C)C(=O)N1CCC[C@H]1C(=O)N1CCC[C@H]1C(=O)N1CCC[C@H]1C(=O)N[C@@H](CO)C(N)=O)C(C)C)[C@@H](C)CC
B5: Example 95 (peptide)
peptide: Y[Aib]EGT[αMePhe(2-F)]ISDYSIALDKIHQ[Aib]EFVNYK([AEEA-AEEA-γGlu-C20 diacid])LEGGPSSGAPPPS-NH2
modifications: N-terminus assumed
SMILES: CC[C@H](C)[C@H](NC(=O)[C@H](CO)NC(=O)[C@H](Cc1ccc(O)cc1)NC(=O)[C@H](CC(=O)O)NC(=O)[C@H](CO)NC(=O)[C@@H](NC(=O)[C@](C)(Cc1ccccc1F)NC(=O)[C@@H](NC(=O)CNC(=O)[C@H](CCC(=O)O)NC(=O)C(C)(C)NC(=O)[C@@H](N)Cc1ccc(O)cc1)[C@@H](C)O)[C@@H](C)CC)C(=O)N[C@@H](C)C(=O)N[C@@H](CC(C)C)C(=O)N[C@@H](CC(=O)O)C(=O)N[C@@H](CCCCN)C(=O)N[C@H](C(=O)N[C@@H](Cc1c[nH]cn1)C(=O)N[C@@H](CCC(N)=O)C(=O)NC(C)(C)C(=O)N[C@@H](CCC(=O)O)C(=O)N[C@@H](Cc1ccccc1)C(=O)N[C@H](C(=O)N[C@@H](CC(N)=O)C(=O)N[C@@H](Cc1ccc(O)cc1)C(=O)N[C@@H](CCCCNC(=O)COCCOCCNC(=O)COCCOCCNC(=O)CC[C@H](NC(=O)CCCCCCCCCCCCCCCCCCC(=O)O)C(=O)O)C(=O)N[C@@H](CC(C)C)C(=O)N[C@@H](CCC(=O)O)C(=O)NCC(=O)NCC(=O)N1CCC[C@H]1C(=O)N[C@@H](CO)C(=O)N[C@@H](CO)C(=O)NCC(=O)N[C@@H](C)C(=O)N1CCC[C@H]1C(=O)N1CCC[C@H]1C(=O)N1CCC[C@H]1C(=O)N[C@@H](CO)C(N)=O)C(C)C)[C@@H](C)CC

Biological target: T1, human GLP-1 receptor (human), P43220
Assay: SPA, displacement of [125I]-GLP-1 from hGLP-1R membranes, 0.1% bacitracin

Binder | Ki [nM]
B1 | 570
B2 | 849
B3 | 311
B4 | 423
B5 | 832
Y[Aib]EGTFISDYSI[αMeL]LD[Orn]IHQ[Aib]DFVEYK([AEEA-AEEA-γGlu-C20 diacid])LEGGPSSGAPPPS-NH2 [Example 6] | 571

biological target: human glucagon receptor (human), P47871; assay: SPA, displacement of [125I]-Gcg from hGcgR membranes, 0.1% bacitracin
Sequence (P47871 26-477): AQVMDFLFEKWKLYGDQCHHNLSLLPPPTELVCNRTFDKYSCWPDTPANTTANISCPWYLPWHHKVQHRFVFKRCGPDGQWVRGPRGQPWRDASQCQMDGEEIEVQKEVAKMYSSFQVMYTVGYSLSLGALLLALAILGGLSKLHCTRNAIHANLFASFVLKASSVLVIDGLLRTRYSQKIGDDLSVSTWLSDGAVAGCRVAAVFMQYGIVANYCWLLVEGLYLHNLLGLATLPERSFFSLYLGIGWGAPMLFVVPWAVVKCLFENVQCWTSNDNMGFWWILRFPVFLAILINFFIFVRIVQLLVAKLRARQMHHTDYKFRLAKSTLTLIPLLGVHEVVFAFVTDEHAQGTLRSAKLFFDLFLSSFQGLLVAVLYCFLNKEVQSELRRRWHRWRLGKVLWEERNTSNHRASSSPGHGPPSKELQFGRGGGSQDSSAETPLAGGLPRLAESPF

Binder | Ki [nM]
B1 | 77.5
B2 | 576
B3 | 38.4
B4 | 431
B5 | 85
Y[Aib]EGTFISDYSI[αMeL]LD[Orn]IHQ[Aib]DFVEYK([AEEA-AEEA-γGlu-C20 diacid])LEGGPSSGAPPPS-NH2 [Example 6] | 453

Biological target: T2, human glucose-dependent insulinotropic …
Assay: SPA, displacement of [125I]-GIP from hGIPR membranes, 0.1% bacitracin

Binder | Ki [nM]
B1 | 0.0249
B2 | 0.0538
B3 | 0.0195
B4 | 0.062
B5 | 0.0255
Y[Aib]EGTFISDYSI[αMeL]LD[Orn]IHQ[Aib]DFVEYK([AEEA-AEEA-γGlu-C20 diacid])LEGGPSSGAPPPS-NH2 [Example 6] | 0.104
